# Results published in article PMC12354661.
# Columns and labels:
# [1] = target: T1, C-type lectin-like molecule-1 (CLL-1), immobilized on magnetic beads or SPR chip (UniProt Q5QGZ9); test: flow cytometry (bead binding); conditions: Flow cytometry: 100 nM FAM-aptamer, 10 uL MB-CLL-1 in 200 uL DPBS, room temperature, 30 min, 150 rpm, 3 DPBS washes, SPR buffer and temperature not stated
# T1 sequence: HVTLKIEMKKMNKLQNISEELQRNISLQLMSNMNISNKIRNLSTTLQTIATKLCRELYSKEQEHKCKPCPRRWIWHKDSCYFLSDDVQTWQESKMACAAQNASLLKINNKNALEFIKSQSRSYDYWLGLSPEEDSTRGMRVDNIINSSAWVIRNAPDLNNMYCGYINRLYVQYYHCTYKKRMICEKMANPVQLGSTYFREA
# [2] = target: T1, C-type lectin-like molecule-1 (CLL-1), immobilized on magnetic beads or SPR chip; test: SPR; conditions: aptamer 0.000244-0.0625 uM, Flow cytometry: 100 nM FAM-aptamer, 10 uL MB-CLL-1 in 200 uL DPBS, room temperature, 30 min, 150 rpm, 3 DPBS washes, SPR buffer and temperature not stated
sequence,measurement,setting,value
ATTACCAGGGACCGAAGGCAAAACTATGATCGGTGG [Aptamer-2 (Apt-2)],binding signal (% FITC-positive beads),[1]; 100 nM aptamer,94.3
same,binding signal (% FITC-positive beads),"[1]; 100 nM aptamer, specificity experiment",100
same,Kd,[2],0.0155 µM
CACGAACCGGGGAGGGCGGGCGGGTTGGTGTCGTGC [Aptamer-3 (Apt-3)],binding signal (% FITC-positive beads),[1],1.23
AACACTGGGGGCTGCTCGGGATTGTCGGACGTGGTG [Aptamer-4 (Apt-4)],binding signal (% FITC-positive beads),[1]; 100 nM aptamer,2.84
TCGCGAAGGGTGGGGACTGCTCGGGATTGCGGATGC [Aptamer-1 (Apt-1)],binding signal (% FITC-positive beads),"[1]; 100 nM aptamer, text gives 3.28",3.26
